Experimental data published in patent US20140294898A1.

Target: human PD-L1 on cells (human) (UniProt Q9NZQ7)
Experiment: cell-based or functional assay

human PD-L1 on cells (human), sequence (Q9NZQ7 19-290): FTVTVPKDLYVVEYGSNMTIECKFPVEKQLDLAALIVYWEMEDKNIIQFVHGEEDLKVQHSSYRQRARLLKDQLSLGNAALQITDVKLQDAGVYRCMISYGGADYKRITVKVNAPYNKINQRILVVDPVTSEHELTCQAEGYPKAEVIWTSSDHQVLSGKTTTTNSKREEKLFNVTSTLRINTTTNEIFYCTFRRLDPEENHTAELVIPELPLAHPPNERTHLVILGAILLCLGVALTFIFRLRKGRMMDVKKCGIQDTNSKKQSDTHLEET

IFNγ secretion by CMV-specific T cells (ELISA), EC50: 0.6 nM
Substance: anti-PD-L1 antibody (MDX-1105)
